In paper PMC3829318:

Tests used:
[1] = anti-KOR1 immunoblot of Sf21 culture medium; conditions: glycan lost; control: rKOR1 WT
[2] = Golgi processing of remaining glycopeptides, LC-ESI-MS, N. benthamiana; conditions: glycan lost; control: wild-type KOR1-Fc-GFP
[3] = transient expression in N. benthamiana leaves; conditions: glycan lost; control: wild-type KOR1-Fc-GFP
[4] = CMC hydrolysis after non-denaturing Endo H
[5] = CMC hydrolysis after non-denaturing deglycosylation; conditions: glycan lost; control: untreated rKOR1 WT
[6] = glycan lost, control: Endo H-digested rKOR1 WT

B1: KORRIGAN1 (KOR1): N324Q/N345Q (protein)
parent chain: MYGRDPWGGPLEINTADSATDDDRSRNLNDLDRAALSRPLDETQQSWLLGPTEQKKKKYVDLGCIIVSRKIFVWTVGTLVAAALLAGFITLIVKTVPRHHPKTPPPDNYTIALHKALKFFNAQKSGKLPKHNNVSWRGNSGLQDGKGETGSFYKDLVGGYYDAGDAIKFNFPMAYAMTMLSWSVIEYSAKYEAAGELTHVKELIKWGTDYFLKTFNSTADSIDDLVSQVGSGNTDDGNTDPNDHYCWMRPEDMDYKRPVTTCNGGCSDLAAEMAAALASASIVFKDNKEYSKKLVHGAKVVYQFGRTRRGRYSAGTAESSKFYNSSMYWDEFIWGGAWMYYATGNVTYLNLITQPTMAKHAGAFWGGPYYGVFSWDNKLAGAQLLLSRLRLFLSPGYPYEEILRTFHNQTSIVMCSYLPIFNKFNRTNGGLIELNHGAPQPLQYSVNAAFLATLYSDYLDAADTPGWYCGPNFYSTSVLRDFARSQIDYILGKNPRKMSYVVGFGTKYPRHVHHRGASIPKNKVKYNCKGGWKWRDSKKPNPNTIEGAMVAGPDKRDGYRDVRMNYNYTEPTLAGNAGLVAALVALSGEEEATGKIDKNTIFSAVPPLFPTPPPPPAPWKP
For B1, the expression_or_secretion [1] was “decreases”, the localisation_or_trafficking [2] was “no change” and the expression_or_secretion [3] was “no change”.

B2: KORRIGAN1 (KOR1): N425Q + Endo H (protein)
parent chain: B1 parent chain
In the case of B2, the enzymatic_activity [4, 6] is reported as “no change”.

B3: KORRIGAN1 (KOR1): kifunensine (rKOR1 KIF) + Endo H (protein)
parent chain: B1 parent chain
In the case of B3, the enzymatic_activity ([4]; glycan changed form, control: Endo H-treated rKOR1 WT) is reported as “decreases”.

B4: KORRIGAN1 (KOR1): Endo H (protein)
parent chain: B1 parent chain
In the case of B4, the “enzymatic_activity, percent_of_wt” value [5] is reported as “decreases, loss of 20–30% vs 100”.

B5: KORRIGAN1 (KOR1): N216Q + Endo H (protein)
parent chain: B1 parent chain
For B5, the enzymatic_activity [4, 6] was “no change”.

B6: KORRIGAN1 (KOR1): PNGase F (protein)
parent chain: B1 parent chain
In the case of B6, the “enzymatic_activity, percent_of_wt” value [5] is reported as “decreases, ∼50 vs 100”.

B7: KORRIGAN1 (KOR1): N408Q + Endo H (protein)
parent chain: B1 parent chain
With B7 the enzymatic_activity [4, 6] was “no change”.

B8: KORRIGAN1 (KOR1): N324Q + Endo H (protein)
parent chain: B1 parent chain
For B8, the enzymatic_activity [4, 6] was “no change”.

B9: KORRIGAN1 (KOR1): N345Q + Endo H (protein)
parent chain: B1 parent chain
For B9, the enzymatic_activity [4, 6] was “no change”.
